We go through two molecules from patent US20220048951A1.

“And” between values parts separate entries of the source, which are not always exact repeats. Equal values may be shown once.

In this assay the target is T1, CD20 on CD20 positive lymphoma cells (Daudi, Raji) (human) (UniProt P11836).
T1 sequence: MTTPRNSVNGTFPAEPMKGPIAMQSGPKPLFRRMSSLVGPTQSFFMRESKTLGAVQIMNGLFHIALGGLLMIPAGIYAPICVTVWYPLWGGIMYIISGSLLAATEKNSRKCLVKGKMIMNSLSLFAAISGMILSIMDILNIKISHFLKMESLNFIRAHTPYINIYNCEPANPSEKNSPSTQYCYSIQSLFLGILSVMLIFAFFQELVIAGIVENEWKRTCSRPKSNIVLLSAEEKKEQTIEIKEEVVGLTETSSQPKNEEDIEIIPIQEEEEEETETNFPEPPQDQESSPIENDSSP
Put plainly: cell-based or functional assay.

B1: anti-CD20-Phor18 minibody conjugate Fv-CH3-CH3-Fv-Phor18 (protein)
chain: DIQLTQSPAILSASPGEKVTMTCRASSSVSYIHWFQQKPGSSPKPWIYATSNLASGVPVRFSGSGSGTSYSLTISRVEAEDAATYYCQQWTSNPPTFGGGTKLEIGSTSGGGSGGGSGGGGSSVQLQQPGAELVKPGASVKMSCKASGYTFTSYNMHWVKQTPGRGLEWIGAIYPGNGDTSYNQKFKGKATLTADKSSSTAYMQLSSLTSEDSAVYYCARSTYYGGDWYFDVWGQGTTVTVSSGQPREPQVYTLPPSRDELTKNQVSLTCLVKGFYPSDIAVEWESNGQPENNYKTTPPVLDSDGSFFLYSKLTVDKSRWQQGNVFSCSVMHEALHNHYTQKSLSLSPGKGSTSGGGSGGGSGGGGSSGQPREPQVYTLPPSRDELTKNQVSLTCLVKGFYPSDIAVEWESNGQPENNYKTTPPVLDSDGSFFLYSKLTVDKSRWQQGNVFSCSVMHEALHNHYTQKSLSLSPGKVQLQQPGAELVKPGASVKMSCKASGYTFTSYNMHWVKQTPGRGLEWIGAIYPGNGDTSYNQKFKGKATLTADKSSSTAYMQLSSLTSEDSAVYYCARSTYYGGDWYFDVWGQGTTVTVSSGSTSGGGSGGGSGGGGSSDIQLTQSPAILSASPGEKVTMTCRASSSVSYIHWFQQKPGSSPKPWIYATSNLASGVPVFSGSGSGTSYSLTISRVEAEDAATYYCQQWTSNPPTFGGGTKLEIGSKFAKFAKKFAKFAKKFAK
Regarding B1, the IC50 nM, cell viability 24 h, Daudi (CD20 positive) is 10.5 nM and the IC50 nM, cell viability 46 h, Daudi (CD20 positive) is 3.6 nM.

B2: anti-CD20 scFv-Phor18 conjugate (C-terminus) (scFv)
scFv: HHHHHHDIQLTQSPAILSASPGEKVTMTCRASSSVSYIHWFQQKPGSSPKPWIYATSNLASGVPVRFSGSGSGTSYSLTISRVEAEDAATYYCQQWTSNPPTFGGGTKLEIGSTSGGGSGGGSGGGGSSVQLQQPGAELVKPGASVKMSCKASGYTFTSYNMHWVKQTPGRGLEWIGAIYPGNGDTSYNQKFKGKATLTADKSSSTAYMQLSSLTSEDSAVYYCARSTYYGGDWYFDVWGQGTTVTVSSGSKFAKFAKKFAKFAKKFAK
With B2, the IC50 nM, cell viability 24 h, Daudi (CD20 positive) is 10 nM; the IC50 nM, cell viability 46 h, Daudi (CD20 positive) worked out at 1.5 nM; the IC50 nM, membrane integrity 2 h, Daudi (CD20 positive) is 110 nM; the IC50 nM, membrane integrity 5 h, Daudi (CD20 positive) amounted to 112 nM. The caspase 3/7 activation relative to staurosporine (100%), CD20 positive cells, 5 h was 18.3% and 29.3%.
